{"source": "patent US11661611", "assay_in_all_cases": "cell_activity", "key": {"[1]": {"test_system": "ZFN 59580 (synthetic construct)", "settings": "indels with partner 59581, 6 ug mRNA, activated T cells; 83 at 2 ug, 72 at 0.5 ug"}, "[2]": {"test_system": "ZFN 59489 (synthetic construct)", "settings": "indels with partner 59488, 6 ug mRNA, activated T cells; 84 at 2 ug, 60 at 0.5 ug"}, "[3]": {"test_system": "ZFN 59581 (synthetic construct)", "settings": "indels with partner 59580, 6 ug mRNA, activated T cells; 83 at 2 ug, 72 at 0.5 ug"}, "[4]": {"test_system": "ZFN 59557 (synthetic construct)", "settings": "indels with partner 59558, 6 ug mRNA, activated T cells; 80 at 2 ug, 55 at 0.5 ug"}, "[5]": {"test_system": "ZFN 59488 (synthetic construct)", "settings": "indels with partner 59489, 6 ug mRNA, activated T cells; 84 at 2 ug, 60 at 0.5 ug"}, "[6]": {"test_system": "ZFN 59558 (synthetic construct)", "settings": "indels with partner 59557, 6 ug mRNA, activated T cells; 80 at 2 ug, 55 at 0.5 ug"}, "[7]": {"test_system": "ZFN 59441 (synthetic construct)", "settings": "indels with partner 59440, 6 ug mRNA, activated T cells; 82 at 2 ug, 59 at 0.5 ug"}, "[8]": {"test_system": "ZFN 59440 (synthetic construct)", "settings": "indels with partner 59441, 6 ug mRNA, activated T cells; 82 at 2 ug, 59 at 0.5 ug; F6 printed ATCCLAH in Table 1, ATCGLAH in claim"}}, "data": [{"sequence": "CCGGAAAGGCCAGGATGCGTGGCCTGGA (double strand) [CISH exon 3 site 59580]", "values": [{"measurement": "activity", "setting": "[1]", "value": 82, "unit": "%"}]}, {"sequence": "GAGGAGGTGGCAGAGGGTACCCCAGCCC (double strand) [CISH exon 2 site 59489]", "values": [{"measurement": "activity", "setting": "[2]", "value": 89, "unit": "%"}]}, {"sequence": "ATAGTGCTGCACAAGGCTGACCACATCC (double strand) [CISH exon 3 site 59581]", "values": [{"measurement": "activity", "setting": "[3]", "value": 82, "unit": "%"}]}, {"sequence": "GAGTCCAGACGGAAGCTGGAGTCGGCAT (double strand) [CISH exon 3 site 59557]", "values": [{"measurement": "activity", "setting": "[4]", "value": 84, "unit": "%"}]}, {"sequence": "GGAAGGCCCCAGCAGGCAAGGGCTGCAT (double strand) [CISH exon 2 site 59488]", "values": [{"measurement": "activity", "setting": "[5]", "value": 89, "unit": "%"}]}, {"sequence": "GATGCGTGGCCTGGACAAGCAGTTGGAG (double strand) [CISH exon 3 site 59558]", "values": [{"measurement": "activity", "setting": "[6]", "value": 84, "unit": "%"}]}, {"sequence": "GTGGAGCGGACTGGGCAGCGGCCCCTGT (double strand) [CISH exon 2 site 59441]", "values": [{"measurement": "activity", "setting": "[7]", "value": 84, "unit": "%"}]}, {"sequence": "CCAGCAAAGGACGAGGTCTAGAAGGCAG (double strand) [CISH exon 2 site 59440]", "values": [{"measurement": "activity", "setting": "[8]", "value": 84, "unit": "%"}]}]}
